The source of these data is publication PMC2928679 (The EMBO Journal, 2010).

B1: FlagHis12-tagged mouse Mel18 (natural protein)
chain: MHRTTRIKITELNPHLMCALCGGYFIDATTIVECLHSFCKTCIVRYLETNKYCPMCDVQVHKTRPLLSIRSDKTLQDIVYKLVPGLFKDEMKRRRDFYAAYPLTEVPNGSNEDRGEVLEQEKGALGDDEIVSLSIEFYEGVRDREEKKNLTENGDGDKEKTGVRFLRCPAAMTVMHLAKFLRNKMDVPSKYKVEILYEDEPLKEYYTLMDIAYIYPWRRNGPLPLKYRVQPACKRLTLPTVPTPSEGTNTSGASECESVSDKAPSPATLPATSSSLPSPATPSHGSPSSHGPPATHPTSPTPPSTAAGTTTATNGGTSNCLQTPSSTSRGRKMTVNGAPCPP
B2: FlagHis12-tagged mouse Bmi1 (natural protein)
chain: MHRTTRIKITELNPHLMCVLCGGYFIDATTIIECLHSFCKTCIVRYLETSKYCPICDVQVHKTRPLLNIRSDKTLQDIVYKLVPGLFKNEMKRRRDFYAAHPSADAANGSNEDRGEVADEEKRIITDDEIISLSIEFFDQSRLDRKVNKEKPKEEVNDKRYLRCPAAMTVMHLRKFLRSKMDIPNTFQIDVMYEEEPLKDYYTLMDIAYIYTWRRNGPLPLKYRVRPTCKRMKMSHQRDGLTNAGELESDSGSDKANSPAGGVPSTSSCLPSPSTPVQSPHPQFPHISSTMNGTSNSPSANHQSSFASRPRKSSLNGSSATSSG
B3: FlagHis12-tagged mouse Ring1b (natural protein)
chain: MSQAVQTNGTQPLSKTWELSLYELQRTPQEAITDGLEIVVSPRSLHSELMCPICLDMLKNTMTTKECLHRFCADCIITALRSGNKECPTCRKKLVSKRSLRPDPNFDALISKIYPSRDEYEAHQERVLARINKHNNQQALSHSIEEGLKIQAMNRLQRGKKQQIENGSGAEDNGDSSHCSNASTHSNQEAGPSNKRTKTSDDSGLELDNNNAAVAIDPVMDGASEIELVFRPHPTLMEKDDSAQTRYIKTSGNATVDHLSKYLAVRLALEELRSKGESNQMNLDTASEKQYTIYIATASGQFTVLNGSFSLELVSEKYWKVNKPMELYYAPTKEHK
B4: CBX8-Flag purified from bacteria (natural protein)
chain: MELSAVGERVFAAEALLKRRIRKGRMEYLVKWKGWSQKYSTWEPEENILDARLLAAFEEREREMELYGPKKRGPKPKTFLLKAQAKAKAKTYEFRSDSARGIRIPYPGRSPQDLASTSRAREGLRNMGLSPPASSTSTSSTCRAEAPRDRDRDRDRDRERDRERERERERERERERERERGTSRVDDKPSSPGDSSKKRGPKPRKELPDPSQRPLGEPSAGLGEYLKGRKLDDTPSGAGKFPAGHSVIQLARRQDSDLVQCGVTSPSSAEATGKLAVDTFPARVIKHRAAFLEAKGQGALDPNGTRVRHGSGPPSSGGGLYRDMGAQGGRPSLIARIPVARILGDPEEESWSPSLTNLEKVVVTDVTSNFLTVTIKESNTDQGFFKEKR

The target of the experiment is GST-USP7 (human, UniProt Q93009-1 1-1102). In words: pull-down.
Chain of GST-USP7 (Q93009 whole entry): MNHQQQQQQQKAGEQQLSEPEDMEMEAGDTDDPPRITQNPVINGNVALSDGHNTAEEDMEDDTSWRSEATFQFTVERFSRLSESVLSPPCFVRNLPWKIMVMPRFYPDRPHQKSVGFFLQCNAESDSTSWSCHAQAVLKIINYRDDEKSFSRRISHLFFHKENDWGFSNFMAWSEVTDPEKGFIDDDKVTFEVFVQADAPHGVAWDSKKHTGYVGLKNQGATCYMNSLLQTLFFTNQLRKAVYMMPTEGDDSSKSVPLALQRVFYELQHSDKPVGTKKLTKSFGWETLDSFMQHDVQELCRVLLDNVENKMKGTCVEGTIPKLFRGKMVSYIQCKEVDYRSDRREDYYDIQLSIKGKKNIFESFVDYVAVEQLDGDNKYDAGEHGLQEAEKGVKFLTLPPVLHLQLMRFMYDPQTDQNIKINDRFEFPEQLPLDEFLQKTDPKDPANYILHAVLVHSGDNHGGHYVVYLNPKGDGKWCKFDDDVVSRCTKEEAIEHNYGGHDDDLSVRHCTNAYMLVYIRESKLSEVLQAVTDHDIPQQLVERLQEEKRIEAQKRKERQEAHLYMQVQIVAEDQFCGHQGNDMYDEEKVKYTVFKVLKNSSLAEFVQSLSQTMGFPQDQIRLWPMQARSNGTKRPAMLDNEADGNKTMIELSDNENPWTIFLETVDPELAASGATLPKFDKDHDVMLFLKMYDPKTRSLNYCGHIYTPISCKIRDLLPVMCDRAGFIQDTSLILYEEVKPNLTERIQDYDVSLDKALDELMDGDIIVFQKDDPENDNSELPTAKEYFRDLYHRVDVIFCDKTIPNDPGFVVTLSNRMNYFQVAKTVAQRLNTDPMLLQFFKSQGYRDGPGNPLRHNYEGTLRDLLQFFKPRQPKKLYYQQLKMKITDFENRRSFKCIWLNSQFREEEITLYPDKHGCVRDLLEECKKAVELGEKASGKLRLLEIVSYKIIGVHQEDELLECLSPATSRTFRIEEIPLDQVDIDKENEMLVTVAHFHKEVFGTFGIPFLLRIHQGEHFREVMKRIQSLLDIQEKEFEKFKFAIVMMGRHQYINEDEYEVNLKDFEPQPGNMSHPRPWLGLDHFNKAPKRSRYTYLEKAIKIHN
On to B1, for which the binding result was “binds”. In the case of B2 it was “binds”. Then B3, with “binds”. In the case of B4 it was “binds”.
